In publication PMC12025923 (Cells, 2025):

B1: wild-type 14-3-3γ-3xHA [human] / GFP-SLP76 [human] (parent)
chain 1: MVDREQLVQKARLAEQAERYDDMAAAMKNVTELNEPLSNEERNLLSVAYKNVVGARRSSWRVISSIEQKTSADGNEKKIEMVRAYREKIEKELEAVCQDVLSLLDNYLIKNCSETQYESKVFYLKMKGDYYRYLAEVATGEKRATVVESSEKAYSEAHEISKEHMQPTHPIRLGLALNYSVFYYEIQNAPEQACHLAKTAFDDAIAELDTLNEDSYKDSTLIMQLLRDNLTLWTSDQQDDDGGEGNN
chain 2: MALRNVPFRSEVLGWDPDSLADYFKKLNYKDCEKAVKKYHIDGARFLNLTENDIQKFPKLRVPILSKLSQEINKNEERRSIFTRKPQVPRFPEETESHEEDNGGWSSFEEDDYESPNDDQDGEDDGDYESPNEEEEAPVEDDADYEPPPSNDEEALQNSILPAKPFPNSNSMYIDRPPSGKTPQQPPVPPQRPMAALPPPPAGRNHSPLPPPQTNHEEPSRSRNHKTAKLPAPSIDRSTKPPLDRSLAPFDREPFTLGKKPPFSDKPSIPAGRSLGEHLPKIQKPPLPPTTERHERSSPLPGKKPPVPKHGWGPDRRENDEDDVHQRPLPQPALLPMSSNTFPSRSTKPSPMNPLPSSHMPGAFSESNSSFPQSASLPPYFSQGPSNRPPIRAEGRNFPLPLPNKPRPPSPAEEENSLNEEWYVSYITRPEAEAALRKINQDGTFLVRDSSKKTTTNPYVLMVLYKDKVYNIQIRYQKESQVYLLGTGLRGKEDFLSVSDIIDYFRKMPLLLIDGKNRGSRYQCTLTHAAGYP

Variants of: B1
Test: co-immunoprecipitation, quantified Western blot
Details: with GFP-SLP76 [human]; N2a cells; read off a plot
In the case of chain 1 MVDREQLVQKARLAEQAERYDDMAAAMKNVTELNEPLSNEERNLLSVAYKNVVGARCSSWRVISSIEQKTSADGNEKKIEMVRAYREKIEKELEAVCQDVLSLLDNYLIKNCSETQYESKVFYLKMKGDYYRYLAEVATGEKRATVVESSEKAYSEAHEISKEHMQPTHPIRLGLALNYSVFYYEIQNAPEQACHLAKTAFDDAIAELDTLNEDSYKDSTLIMQLLRDNLTLWTSDQQDDDGGEGNN [chain 1 R57C], the ratio to parent (fold of wild-type) is reported as 0.2.
